In the supplement of paper PMC11208486:
± gives the uncertainty stated by the source.

Experiment: specific initial activity, cyclohex-2-enone reduction (U mg-1); higher = more active
Description: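 Specific initial activity of purified ene reductases with 10 mM cyclohex-2-enone and 0.2 mM NAD(P)H in 50 mM sodium phosphate pH 7.4 with 0-45% (v/v) ethanol or methanol, at set reaction temperatures of 25-45 °C. NAD(P)H depletion was followed at 340 nm for 480 s, in triplicate.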

MSFVKDFKPQALGDTNLFKPIKIGNNELLHRAVIPPLTRMRALHPGNIPNRDWAVEYYTQRAQRPGTMIITEGAFISPQAGGYDNAPGVWSEEQMVEWTKIFNAIHEKKSFVWVQLWVLGWAAFPDNLARDGLRYDSASDNVFMDAEQEAKAKKANNPQHSLTKDEIKQYIKEYVQAAKNSIAAGADGVEIHSANGYLLNQFLDPHSNTRTDEYGGSIENRARFTLEVVDALVEAIGHEKVGLRLSPYGVFNSMSGGAETGIVAQYAYVAGELEKRAKAGKRLAFVHLVEPRVTNPFLTEGEGEYEGGSNDFVYSIWKGPVIRAGNFALHPEVVREEVKDKRTLIGYGRFFISNPDLVDRLEKGLPLNKYDRDTFYQMSAHGYIDYPTYEEALKLGWDKK
specific initial activity
Conditions	co-solvent: ethanol	co-solvent: methanol
co-solvent concentration (% v/v): 0, reaction temperature 25 °C	–	0.24 ± 0.02
co-solvent concentration (% v/v): 0, reaction temperature 30 °C	–	0.21
co-solvent concentration (% v/v): 0, reaction temperature 35 °C	–	0.37
co-solvent concentration (% v/v): 0, reaction temperature 40 °C	–	0.23 ± 0.06
co-solvent concentration (% v/v): 0, reaction temperature 45 °C	–	0.07 ± 0.05
co-solvent concentration (% v/v): 5, reaction temperature 25 °C	–	0.21 ± 0.12
co-solvent concentration (% v/v): 5, reaction temperature 30 °C	–	0.29
co-solvent concentration (% v/v): 5, reaction temperature 35 °C	–	0.46 ± 0.02
co-solvent concentration (% v/v): 5, reaction temperature 40 °C	–	0.25 ± 0.07
co-solvent concentration (% v/v): 5, reaction temperature 45 °C	–	0.12 ± 0.1
co-solvent concentration (% v/v): 10, reaction temperature 25 °C	–	0.3 ± 0.02
co-solvent concentration (% v/v): 10, reaction temperature 30 °C	–	0.36 ± 0.01
co-solvent concentration (% v/v): 10, reaction temperature 35 °C	–	0.52 ± 0.07
co-solvent concentration (% v/v): 10, reaction temperature 40 °C	–	0.17 ± 0.07
co-solvent concentration (% v/v): 10, reaction temperature 45 °C	–	0.08 ± 0.07
co-solvent concentration (% v/v): 15, reaction temperature 25 °C	–	0.33 ± 0.03
co-solvent concentration (% v/v): 15, reaction temperature 30 °C	–	0.4 ± 0.03
co-solvent concentration (% v/v): 15, reaction temperature 35 °C	–	0.55 ± 0.04
co-solvent concentration (% v/v): 15, reaction temperature 40 °C	–	0.09 ± 0.07
co-solvent concentration (% v/v): 15, reaction temperature 45 °C	–	0.04 ± 0.04
co-solvent concentration (% v/v): 20, reaction temperature 25 °C	–	0.37 ± 0.04
co-solvent concentration (% v/v): 20, reaction temperature 30 °C	–	0.43 ± 0.01
co-solvent concentration (% v/v): 20, reaction temperature 35 °C	–	0.4 ± 0.08
co-solvent concentration (% v/v): 20, reaction temperature 40 °C	–	0.02 ± 0.04
co-solvent concentration (% v/v): 20, reaction temperature 45 °C	–	0.01 ± 0.01
co-solvent concentration (% v/v): 25, reaction temperature 25 °C	–	0.31 ± 0.06
co-solvent concentration (% v/v): 25, reaction temperature 30 °C	–	0.3 ± 0.01
co-solvent concentration (% v/v): 25, reaction temperature 35 °C	–	0.06 ± 0.04
co-solvent concentration (% v/v): 25, reaction temperature 40 °C	–	0.02 ± 0.01
co-solvent concentration (% v/v): 25, reaction temperature 45 °C	–	0.02 ± 0.01
co-solvent concentration (% v/v): 30, reaction temperature 25 °C	–	0.19 ± 0.03
co-solvent concentration (% v/v): 30, reaction temperature 30 °C	–	0.14 ± 0.02
co-solvent concentration (% v/v): 30, reaction temperature 35 °C	0.02 ± 0.02	0.01
co-solvent concentration (% v/v): 30, reaction temperature 40 °C	0.01 ± 0.01	0.01 ± 0.01
co-solvent concentration (% v/v): 30, reaction temperature 45 °C	0.02 ± 0.01	0 ± 0.01
co-solvent concentration (% v/v): 35, reaction temperature 25 °C	0.07 ± 0.04	0.03 ± 0.02
co-solvent concentration (% v/v): 35, reaction temperature 30 °C	0.03 ± 0.03	0.04 ± 0.03
co-solvent concentration (% v/v): 35, reaction temperature 35 °C	0.01 ± 0.02	0.01
co-solvent concentration (% v/v): 35, reaction temperature 40 °C	0.01 ± 0.01	0
co-solvent concentration (% v/v): 35, reaction temperature 45 °C	0.03	0
co-solvent concentration (% v/v): 40, reaction temperature 25 °C	0.02 ± 0.02	0.02 ± 0.02
co-solvent concentration (% v/v): 40, reaction temperature 30 °C	0.02 ± 0.01	0.03 ± 0.01
co-solvent concentration (% v/v): 40, reaction temperature 35 °C	0.01	0 ± 0.01
co-solvent concentration (% v/v): 40, reaction temperature 40 °C	0.01 ± 0.01	0.01 ± 0.01
co-solvent concentration (% v/v): 40, reaction temperature 45 °C	0.01 ± 0.01	0.01 ± 0.01
co-solvent concentration (% v/v): 45, reaction temperature 25 °C	0.01 ± 0.02	0.01
co-solvent concentration (% v/v): 45, reaction temperature 30 °C	0.04 ± 0.04	0.03
co-solvent concentration (% v/v): 45, reaction temperature 35 °C	0.02	0.01
co-solvent concentration (% v/v): 45, reaction temperature 40 °C	0.01 ± 0.02	0.01 ± 0.01
co-solvent concentration (% v/v): 45, reaction temperature 45 °C	0.02 ± 0.01	0 ± 0.01
